The target in data set [1] is MCM8 WB;MCM9 680 WB (Homo sapiens;Homo sapiens, UniProt Q9UJA3;Q9NXL9 1-840;1-680, E519Q|E415Q). Description: S1 nuclease protection.
The target in data set [2] is MCM8;MCM9 680 (Homo sapiens;Homo sapiens, UniProt Q9UJA3;Q9NXL9 1-840;1-680, |). In words: S1 nuclease protection.
MCM8;MCM9 680, sequence (Q9UJA3 whole entry, chain 1 of 2): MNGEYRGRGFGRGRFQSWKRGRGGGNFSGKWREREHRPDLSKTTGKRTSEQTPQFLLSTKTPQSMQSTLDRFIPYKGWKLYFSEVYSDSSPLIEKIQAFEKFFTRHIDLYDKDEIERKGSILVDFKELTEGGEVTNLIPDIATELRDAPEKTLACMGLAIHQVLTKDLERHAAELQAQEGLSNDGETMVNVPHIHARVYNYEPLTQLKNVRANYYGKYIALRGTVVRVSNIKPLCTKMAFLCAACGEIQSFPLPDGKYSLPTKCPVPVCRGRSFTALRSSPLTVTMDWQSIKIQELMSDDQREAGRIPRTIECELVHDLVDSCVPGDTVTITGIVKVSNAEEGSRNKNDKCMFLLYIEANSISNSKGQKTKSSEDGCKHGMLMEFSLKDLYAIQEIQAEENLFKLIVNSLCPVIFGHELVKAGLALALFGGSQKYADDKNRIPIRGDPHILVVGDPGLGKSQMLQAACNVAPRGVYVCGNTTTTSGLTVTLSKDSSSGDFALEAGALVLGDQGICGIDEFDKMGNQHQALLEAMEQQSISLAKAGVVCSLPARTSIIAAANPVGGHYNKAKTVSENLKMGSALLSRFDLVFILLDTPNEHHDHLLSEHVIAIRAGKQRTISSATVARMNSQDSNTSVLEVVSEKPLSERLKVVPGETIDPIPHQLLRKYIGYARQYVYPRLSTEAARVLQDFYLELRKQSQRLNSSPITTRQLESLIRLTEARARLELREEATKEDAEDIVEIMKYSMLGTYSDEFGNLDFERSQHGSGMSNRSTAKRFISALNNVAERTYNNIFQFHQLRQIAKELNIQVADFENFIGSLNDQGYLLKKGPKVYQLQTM
MCM8;MCM9 680, sequence (Q9NXL9 1-680, chain 2 of 2): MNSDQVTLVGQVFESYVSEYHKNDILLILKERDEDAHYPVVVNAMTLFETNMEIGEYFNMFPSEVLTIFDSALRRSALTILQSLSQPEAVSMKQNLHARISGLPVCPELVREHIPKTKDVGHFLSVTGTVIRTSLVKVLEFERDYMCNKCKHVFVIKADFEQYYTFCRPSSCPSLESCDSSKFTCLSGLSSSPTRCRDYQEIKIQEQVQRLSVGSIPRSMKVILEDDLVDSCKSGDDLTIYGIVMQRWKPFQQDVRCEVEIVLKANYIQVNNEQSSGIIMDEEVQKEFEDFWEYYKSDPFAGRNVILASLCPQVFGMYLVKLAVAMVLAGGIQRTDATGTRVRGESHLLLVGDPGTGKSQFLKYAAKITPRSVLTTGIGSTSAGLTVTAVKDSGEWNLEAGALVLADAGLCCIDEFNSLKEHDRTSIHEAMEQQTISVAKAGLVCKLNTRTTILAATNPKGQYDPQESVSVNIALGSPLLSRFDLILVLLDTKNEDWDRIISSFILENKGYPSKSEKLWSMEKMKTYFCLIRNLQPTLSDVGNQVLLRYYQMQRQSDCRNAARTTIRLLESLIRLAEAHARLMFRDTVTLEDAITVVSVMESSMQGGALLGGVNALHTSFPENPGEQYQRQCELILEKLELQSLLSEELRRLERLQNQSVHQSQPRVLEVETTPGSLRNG

MCM8 WB;MCM9 680 WB, sequence (Q9UJA3 whole entry E519Q, chain 1 of 2): as the sequence (Q9UJA3 whole entry, chain 1 of 2) above, with E519Q counted along it
MCM8 WB;MCM9 680 WB, sequence (Q9NXL9 1-680 E415Q, chain 2 of 2): as the sequence (Q9NXL9 1-680, chain 2 of 2) above, with E415Q counted along it

B1: 3' long arm fork (DNA228/15Cy3) (mixed)
DNA 1: TTTTTTTTTTGCCGGTCGGGGTGGGTGGGAAGCGTAGGGAGAGGTG
DNA 2: CACCTCTCCCTACGCTTCCCACCCACCCCGACCGGCATCTGCTATGGTACGCTGAGCGAGAGTAGC
Regarding B1, the binding result in data set [1] and in data set [2] was “binds” each time.
